Data taken from article PMC6237735.
Values belong to the substance of their own block, whether it stands above or below them.

Assays:
[1] = tested on: Pa-aIF1* unlabeled (Pyrococcus abyssi); test: competition; conditions: chase of labeled aIF1* from 30S; Anisotropy: 10 mM HEPES pH 7.5, 200 mM NaCl, 10 mM Mg acetate, 0.1% Tween 20, 51 C; toeprinting: 10 mM HEPES pH 7.5, 158 mM NaCl, 20 mM NH4Cl, 13.5 mM Mg …
[2] = tested on: Pa-aIF1* (MDCC-coumarin labeled) (Pyrococcus abyssi); test: fluorescence anisotropy; conditions: aIF1* binding to 30S, no mRNA; Anisotropy: 10 mM HEPES pH 7.5, 200 mM NaCl, 10 mM Mg acetate, 0.1% Tween 20, 51 C; toeprinting: 10 mM HEPES pH 7.5, 158 mM NaCl, 20 mM NH4Cl, 13.5 mM Mg …
[3] = tested on: Pa-aIF1*-K34A (Pyrococcus abyssi); test: fluorescence anisotropy; conditions: Anisotropy: 10 mM HEPES pH 7.5, 200 mM NaCl, 10 mM Mg acetate, 0.1% Tween 20, 51 C; toeprinting: 10 mM HEPES pH 7.5, 158 mM NaCl, 20 mM NH4Cl, 13.5 mM Mg …
[4] = tested on: Pa-aIF1*-R31A (Pyrococcus abyssi); test: fluorescence anisotropy; conditions: Anisotropy: 10 mM HEPES pH 7.5, 200 mM NaCl, 10 mM Mg acetate, 0.1% Tween 20, 51 C; toeprinting: 10 mM HEPES pH 7.5, 158 mM NaCl, 20 mM NH4Cl, 13.5 mM Mg …
[5] = tested on: Pa-aIF1*-Y32A (Pyrococcus abyssi); test: fluorescence anisotropy; conditions: Anisotropy: 10 mM HEPES pH 7.5, 200 mM NaCl, 10 mM Mg acetate, 0.1% Tween 20, 51 C; toeprinting: 10 mM HEPES pH 7.5, 158 mM NaCl, 20 mM NH4Cl, 13.5 mM Mg …
[6] = molecular target: Pyrococcus abyssi small ribosomal subunit (Pa-30S) (Pyrococcus abyssi); test: fluorescence polarisation; fluorescence anisotropy of coumarin-labeled aIF1* (50 nM) titrated with purified Pa-30S, no mRNA; 51°C; 10 mM HEPES pH 7.5, 200 mM NaCl, 10 mM MgAc, 0.1% Tween 20; quadratic fit
[7] = molecular target: Pyrococcus abyssi small ribosomal subunit (Pa-30S) (Pyrococcus abyssi); test: fluorescence polarisation; fluorescence anisotropy of coumarin-labeled aIF1 (50 nM for the variants; 13 nM for Pa-aIF1*) titrated with Pa-30S:mRNA complex (30S with a 2-fold molar excess of mRNA); 51°C; 10 mM HEPES pH 7.5, 200 mM NaCl, 10 mM MgAc, 0.1% Tween 20; quadratic fit
[8] = molecular target: Pyrococcus abyssi small ribosomal subunit (Pa-30S) (Pyrococcus abyssi)
[9] = molecular target: Pyrococcus abyssi small ribosomal subunit (Pa-30S) (Pyrococcus abyssi); test: fluorescence polarisation; fluorescence anisotropy of coumarin-labeled aIF1 (50 nM for the variants; 13 nM for Pa-aIF1*) titrated with Pa-30S:mRNA complex (30S with a 2-fold molar excess of mRNA); 51°C; 10 mM HEPES pH 7.5, 200 mM NaCl, 10 mM MgAc, 0.1% Tween 20; quadratic fit; remark: listed apart in the source
[10] = tested on: Pa-30S small ribosomal subunit;Pa-aIF1* unlabeled (Pyrococcus abyssi;Pyrococcus abyssi); test: competition; conditions: Kd of unlabeled aIF1* for 30S:mRNA; 180 nM mRNA; Anisotropy: 10 mM HEPES pH 7.5, 200 mM NaCl, 10 mM Mg acetate, 0.1% Tween 20, 51 C; toeprinting: 10 mM HEPES pH 7.5, 158 mM NaCl, 20 mM NH4Cl, 13.5 mM Mg …
[11] = tested on: Pa-30S small ribosomal subunit;Pa-aIF1* (MDCC-coumarin labeled) (Pyrococcus abyssi;Pyrococcus abyssi); test: fluorescence anisotropy; conditions: Kd of aIF1* for 30S:mRNA; best fit 0.2 nM; Anisotropy: 10 mM HEPES pH 7.5, 200 mM NaCl, 10 mM Mg acetate, 0.1% Tween 20, 51 C; toeprinting: 10 mM HEPES pH 7.5, 158 mM NaCl, 20 mM NH4Cl, 13.5 mM Mg …
[12] = tested on: Pa-30S small ribosomal subunit;Pa-aIF1*-K34A (Pyrococcus abyssi;Pyrococcus abyssi); test: fluorescence anisotropy; conditions: Anisotropy: 10 mM HEPES pH 7.5, 200 mM NaCl, 10 mM Mg acetate, 0.1% Tween 20, 51 C; toeprinting: 10 mM HEPES pH 7.5, 158 mM NaCl, 20 mM NH4Cl, 13.5 mM Mg …
[13] = tested on: Pa-30S small ribosomal subunit;Pa-aIF1*-R31A (Pyrococcus abyssi;Pyrococcus abyssi); test: fluorescence anisotropy; conditions: Anisotropy: 10 mM HEPES pH 7.5, 200 mM NaCl, 10 mM Mg acetate, 0.1% Tween 20, 51 C; toeprinting: 10 mM HEPES pH 7.5, 158 mM NaCl, 20 mM NH4Cl, 13.5 mM Mg …
[14] = tested on: Pa-30S small ribosomal subunit;Pa-aIF1*-Y32A (Pyrococcus abyssi;Pyrococcus abyssi); test: fluorescence anisotropy; conditions: Anisotropy: 10 mM HEPES pH 7.5, 200 mM NaCl, 10 mM Mg acetate, 0.1% Tween 20, 51 C; toeprinting: 10 mM HEPES pH 7.5, 158 mM NaCl, 20 mM NH4Cl, 13.5 mM Mg …
[15] = tested on: Pa-30S small ribosomal subunit (Pyrococcus abyssi); test: fluorescence anisotropy; conditions: 30S alone; mRNA 8 nM; Anisotropy: 10 mM HEPES pH 7.5, 200 mM NaCl, 10 mM Mg acetate, 0.1% Tween 20, 51 C; toeprinting: 10 mM HEPES pH 7.5, 158 mM NaCl, 20 mM NH4Cl, 13.5 mM Mg …
[16] = tested on: Pa-30S small ribosomal subunit;Pa-aIF1 (Pyrococcus abyssi;Pyrococcus abyssi); test: fluorescence anisotropy; conditions: preformed 30S:aIF1; mRNA 0.5 nM; Anisotropy: 10 mM HEPES pH 7.5, 200 mM NaCl, 10 mM Mg acetate, 0.1% Tween 20, 51 C; toeprinting: 10 mM HEPES pH 7.5, 158 mM NaCl, 20 mM NH4Cl, 13.5 mM Mg …

Substance: Pa-30S (16S rRNA in small ribosomal subunit)
- Kd [1]: 40 nM
- Kd [2]: 12 nM
- Kd [3]: > 300 nM
- Kd [4]: 84 nM
- Kd [5]: 20 nM

- Kd [6]: 84 nM
- Kd [7]: < 3 nM
Substance: Pa-aIF1*-R31A (natural protein)

- Kd [6]: > 300 nM
- Kd [7]: 45 nM
Substance: Pa-aIF1*-K34A (natural protein)

- Kd [6]: 20 nM
- Kd [7]: 22 nM
Substance: Pa-aIF1*-Y32A (natural protein)

- factor concentration needed for a toeprinting pattern of 30S:mRNA:aIF1 like that of wt-Pa-aIF1 [8]: 8 fold
Substance: Pa-aIF1-K34A (natural protein)

- Kd [6]: 12 nM
- Kd [7]: < 1 nM
- Kd [9]: 0.2 nM
Substance: Pa-aIF1* (Pyrococcus abyssi aIF1 K45C-C62S labeled with coumarin) (natural protein)

Substance: AUUUGGAGGUGAUUUAAAUGCCAAAG [wt-aEF1A mRNA 26-mer, unlabeled]
- Kd [10]: 0.4 nM
- Kd [11]: < 1 nM
- Kd [12]: 45 nM
- Kd [13]: < 3 nM
- Kd [14]: 22 nM

Substance: AUUUGGAGGUGAUUUAAAUGCCAAAG [wt-aEF1A-mRNA 26-mer]
- Kd [15]: 3.3 nM
- Kd [16]: 0.07 nM
